A short description of this data set: soluble on expression in E. coli; label from the status in PepcDB or PDB records.
Regarding “MSLPNIFVEELVHTPIEKQVIEIVERKGIGHPDSLADGMAEAMSRELSREYIRRFGAVLHHNTDETQIVAGRSNPQFGGGEVIEPIYVLLVGRATKFFNGEYIPTDKIALKAARDYIRQHMQNLDPELDVVFNVRLGEGSTDLQDVFRRKSGNVALANDTSFGIGFAPLSETERLVFNVERRIYEEFRKKNPAIGEDVKVMGLREKDRISLTIAAAFVDRYVANIKEYDAIKEELENFVKEISSEYTEREVEVFVNTADDYETGCVYLTVTGTSAENGDDGSVGRGNRCNGLITPGRPMSMEASSGKNPINHVGKIYNLLANQIAARIAEEVEGVEEVYVRILSQIGKPINEPKALSVQVIPKSGYDISKLERPARDIAEEMIANVGKITDMVIEGKVRTFEGHHHHHH”, the “soluble on expression in E. coli” value is reported as “soluble”.

Regarding “MSLPQSKVLTSFGTANRTPRAAETHPLTWRLRDDGQPVWLEEYQTKQGYDAVRKALGQMSPDEIVSTVKDAGLKGRGGAGFPTGVKWGLMPKDESMNIRYLLCNADEMEPNTWKDRLLMEQLPHLLIEGMIISAKALKAYRGYIFLRGEYVDAAINLRRAVEEAKAAGLLGKNILGSGFDFELFVHTGAGRYICGEETALINSLEGRRANPRAKPPFPAVSGVWGKPTCVNNVETLCNVPAIIGNGVAWYHTLALPGSEDHGTKLMGFSGKVNNPGVWELPFGITARELFEGYAGGMRSGYRLKAWQPGGAGTGFLLPEHLDAQMYTAGIGKVGTRMGTGLAMAVDDSISMVSLLRNMEEFFARESCGWCTPCRDGLPWSVKLLRSLERGEGQEGDLATLEQLCNFLGPGKTFCAHAPGAVEPLASAIKYFRSEFEAGIKGSGDNRKSIKGIQPNLLGERWAAALEHHHHHH”, the “soluble on expression in E. coli” value was “soluble”.

Take “MSLPRKIAYEIPKNWARSNHWLMKTIVGTTFEIEGLENIPETGCIFAPKHQSFWDTYALLPNLPDPVYILKRELLWIPLFGWYAMKQRMIPVNRAARGKVMLKVMERAKEEMAAGRELIIYPEGTRRPPGAEPEYRYGIARLYRDLQVPVIPVAMHPGLFWPRRSTMRYPGHFKVRILPAIEPGLDPDVFFKRLIEVTEKASDELLLETARNNPHLPLPPTAVKRIAELQGKETTADEGHHHHHH”: the “soluble on expression in E. coli” value was “not soluble”.

On to “MSLPVCYYLDATGGDDNNSGLAPDEAWKSLEKLRGVKLLPGNKVLLKRGEVFNGELEITGQGIPEDRIYIDAYGDDERKPCIVGYDTSLYAARICNSDYITMQNLEIVNTGRQPLPYRSGLKIECMDYGVSQNIVVNNVTVRDVNGSLVKEKGGGCGIYIVNGGEKKISTFNRLTIENCHILRCTRNAMIWAAYSDRQNWHPSKHTVIRGNLIEEVPGDGIVPIGCDSTLIEYNVMRDCPDMLPDTEAAAGIWPWSCDNTLVQFNEVSGHKAPWDAQGFDSDWNCRGTVIQYNYSHDNYGGLVLVCNDGTADASFNVGNLGTIVRYNVSIGDGVRPEPTRAGMFSPAVHLAGPVKDSRITRNIIHVNRKPAADIDRTMITLDSWGGYPDSTFISGNIFYAPESSRFQLTESTHNFFEGNYYLGRFEKLPEDGKACQSAEIYQKEVLAKDENGYQGLALLMDTVEVTGVKGVFVNKEAIENFFSRLEKEGHHHHHH”, for which the “soluble on expression in E. coli” value is listed as “soluble”.

As for “MSLQADEQSNGKIKFSKFKVNIKNKDNKSNWTDMGTLVVEKVEYGIATGLNNDKQGGGHSSTFFSLEEEEVNNFVKAMTEGGSFKTSLYYGYKYEQSDEKGIQNKEIITKIEDINCSKHITFSGDKIAKNEGHHHHHH”, the “soluble on expression in E. coli” value is “not soluble”.

With “MSLQIKSIKAYHVVQPFVDGPYRMSKGRQADAFDAVIVAITADSGLTGWGEMAPLGNFYSAAFPAGARAGVPEIAPHLIGHDPRGLASIGRLMDTVFKGHPYIKSALDMACWDLAARAAGVPLVTMLGGRESDMAETYRVVTHGTLDQMAALAKRIIAEGCRRLQVKVGGNVHDDIERVTTVASAVPKGTVIFCDANAGWTPYQARQFADATRGIDYTFEQPCTTIEENMSVRRMLDKPMVLDESVTSLEEMLEIHRLGAADGLTLKISRLGGVTRTRQIRDVAVDLGFMITVEDTGGAEIDTAAMAHLSLSTPQERRLHAIAFHEWVTVRTAFNAPPVTGSHMGIPDGPGLGIDVDPSLLGKPFFEIGEGHHHHHH”, the “soluble on expression in E. coli” value is recorded as “soluble”.

In the case of “MSLQIQNLTKQFGESKAVNSLQISLPKGEVLGLLGRNGAGKTTTIKMLLGLLTPNEGSITWDGKTFGTSGVTIGYLPEERGLYTKSRVIDQLRYFGRLEGMAKKEVDLAIDHWLDRLAIPEYKFKTAGELSKGNQQKIQLIAALLHNPELLILDEPFSGLDPVNAGMLASIIEEQVQSGKTIILSSHRMEQVEAFCQHVCILKKGEAVVKGQLSDIKKEYGFRNLTIEDTEENEKGLQAIHVSYEKQQGLLYVKVQDDAEALNILQQLQEQGVTLRQFKMLEPTLNEIFVERAK”, the “soluble on expression in E. coli” value is given as “not soluble”.

Consider “MSLQKELARNQHLAERLLETEESVRRDVARELHDDIGQTITAIRTQAGIVQRLAADNASVKQSGQLIEQLSLGVYDAVRRLLGRLRPRQLDDLTLEQAIRSLMREMELEGRGIVSHLEWRIEESALSENQRVTLFRVCQEGLNNIVKHADASAVTLQGWLQDERLMLVIEDDGSGLPPGSGQQGFGLTGMRERVTALGGTLTISCLHGTRVSVSLPQRYVEGHHHHHH”, for which the “soluble on expression in E. coli” value is “soluble”.

Turning to “MSLQQQPPGTPKSTHGAWSVICDKPAGASEEQCALMQNVIADDRPEVGLSVVILKTADRKSRILRILAPLGVLLKDGMELYIDNNNIGRAYFTRCFSEGCYVEVDIDDELLKVLRAGKNAVFALRESVDQDRVGIPIELSGFAEGYDALPEGHHHHHH”, the “soluble on expression in E. coli” value is recorded as “not soluble”.

As for “MSLQVVIKFGGTSVSTRATWNNIAAITQKHLNTGVQPVIVCSALTQISNKLEKAIEAALLDEHHSLFNDIQSSHLNLAEQLEVNHQLIANDLHQLQQWLTGISLLKQAPAKTHAQILSLGELMMTRMGHAFLERHEIKVKWYDARELLTSTPTLGGETMNYLSARCESEYDPGLVEKFLSSGAQAIITQGFFAANPHGETVLLGRGGSDTSAALLAGKLQAASCEIWTDVPGIYTANPHQLPHARLLKQLNYDEAQEIASMGAKVLHPNCIPPVRKANIPMVVKYTHLPEHSGTLITKDIDESAPLIKSIQVKHSILLISIDTLNMWQQVGFLADVFAAFKKHGFSVDLLSSSEFNVTLSLDVNAKIHDRPAINALLDDLNQFGRAKLIEPCSAVSLVGHHIRTVLPHLGPALEVFEAKQVYLMSLASNDLNLTFVVDESHADKLCQRLHHLLIESNPQIFYYSKSWHEEFGKPNVRPTPWWEIERDRLLTTSAIHSPCYVYHSPTQAIRARQLSALESIDSLFYAVKANPFPSILKTLEKEGIGFECVSIQELELVLKLFPNIKKERILFTPNFAPKSEYEFALQTGCYVTIDSLYPLENWPELFKNREVIVRIDPGTGAGHHKHVSTGGNESKFGITQNDISKILSLTKSNHIKVIGLHAHSGSGILSTDLWQQTAVMLASLTDQFPEVRSINLGGGLGIVEKPGQHPIDFAALDAQLMAVKSQYPGLAIWLEPGRFFVAESGVILAKVTQCKEKGKVKFIGIETGMNSLIRPSLYGAYHEIVNLTRLHEEKAGFAHIVGPICESGDTLGYDRLLPVTKEGDVILIANTGAYGHCMSSHYNLRPPAQEIVLEEGHHHHHH”, the “soluble on expression in E. coli” value is given as “soluble”.

In the case of “MSLRAAARELSVGHTPTIGLVVADLANPFFAQLADRVVWEARSHGVQVMVMTTQEDPHLEADSLDTLLDRSVGGVIATPTGANIEKWARLQSLGVNVVFVDRTIPELEDVDLVSIENVDSARRATEHMLGLGHRRIGLITGPVSTSTGRSRIEGYKAAHNNFSISVDPQLIRDVAFRGDGGGDAVGSLLALPDRPTALIVANTAQVLSSVRRLVQIGVRIPDDLSVIVFDDNPWTELTNPPLSVIRQPIDMLAVHSLELVLGRMQGRLPAAPRTIEVKADFVPRSSCSPLALSEGHHHHHH”, the “soluble on expression in E. coli” value is “soluble”.

Consider “MSLRAGTEETERGHTALTVEGIGRRRGSEERETPERGDKEEGKEQVKRETAGGTRSSSPQKQRGKSTTRRLSVAGLSSERTQSNFEIHRELEDQTDDAMSGAGGIDCSMSGTTATVVLHIHALKKLFVAHVGDSRAVIARREHASSRAVAGGSDGFRQETRNDSRMLQQQTSSEPRETAEDRGCRSAGTGTDCRPLSRLMAFDLTNDHKPTNEIEKQRIMKAGGQVRRLEGDVPHRVFLKNRLFPGLAMSRAIGDTIATQAGVIPDPEVRGYQQSQSDEGHHHHHH”, for which the “soluble on expression in E. coli” value is “soluble”.

As for “MSLRAQGEVVLSIDGEPVKRSEFEYYFRKSSHRTPLSFLPSFINYKLKVRYAHDMGIDTLSVFRRQVDWYRGKLLRTYLADAEKEEQAARRLYLQGEQRLQANDWIKIAHISKYLSQNASRQEEMRVRQQMDSVYEALREGADFATLARRYSDDEACKNVGGVLPWMPVNKNMQEWIDKLESLERNKISAPFYSPMGIHIVKWIDRRQGVSFEEKREQLLNYLEKNGNCTWKELSAEQKEELEFRVQELQDGLLAAYLSQKYQSGDEAWNEDDLERFFKQHKSDYAWELPHYRGAVIHCKDRKTASAIKKQLKKKPVSQWKDILHTLTGDDASSKVRMEAGVFQIGTNRYIDKLVFKCGSFQPEPDLPYTFVMGKKLKKGPESYEDVREAVVKDYLTVYEDAWLKDLKRKYKVEINQEVLKTVNNNGSEGHHHHHH”, the “soluble on expression in E. coli” value was “not soluble”.

Take “MSLRASTVKQHAFGLLIPELGQTEIFEPICQGMVAAQEAHNHVLIWGRSLAGSETTEADAKDVCARLISNRVSGVFFAPIEANPQKDAINRIISTMLSDAKIPIVLLDRDIVDYPQRSKFDVVGIDNRRAGCVATQHLIDAGCRRIGFIGRPHLAPSCVARCNGYRETVSNSSIPLAPTFAERLDPSDPILVGKVMDRHKPDGIVCSNDRTAALLMRTFATLKIAVPDQVRLVAFDDVKYASLVTVPLTTIHQPCDQLGAAAIQAMVQRIESPDMPPRDILVDFHLVVRESCGARMAREGHHHHHH”: the “soluble on expression in E. coli” value is reported as “soluble”.

With “MSLRDIAIGASLELSGPTQSIGTAYKKALELQVDSINEQGGVLGGRKLRLVVKDNQTKPAQNITNVNDLINNDHVVAVITGGCSACTVPVTSIVEKRKVPLISLASATAITDPVAERQYTFKISPNPAQDAEVLLADLKKKGVKSVGLLNVDNPYGQEGRAAVLAQAKKAGIEVTGTQQFGQEDKDMSVQAKRLVDDRPEAVVVWAVMPAAGIIAKNLRDAEFDGGVYLDAGAGAELFVKGAQGAAEGVHMVFPRVLAIGDVTSGGDSVRKQKQWVARYTDRYQDYSGFASFAADAALMLRDAIAKSGSTDGAELRDTIETIGFDGVSGPIRNSAKEHSGLQPESLGVLVVRDGDWHLANEGHHHHHH”, the “soluble on expression in E. coli” value was “soluble”.

For “MSLRFEGIYTPAVTPHTPDGDIDWAVFSEVLESLIEANVHGIIIGGSTGEYYAQTAEERLKLAAHAKDVMGNRVQLIIGTGAIRTEDAVLFAKDAKALKADAILVTTPPYALPTDQENAIHALTIDRAANMPIMLYNYPGRMGVQMNEDYLARVGKSKNVIAIKESSGEMGRVHLLAREFPHIALSCGWDDQALEFFAWGARSWVCAGSNFLPREHVALYEACVIEKNFDKGRQIMSAMMPLMHALDGGKFVQCIKFGCELNGLKVGDVRAPLRPLNAEDKRSLQTVIANVKEGHHHHHH”, the “soluble on expression in E. coli” value is “not soluble”.
